Source: article PMC10087246

Molecular target: SCO3201 (amino acids 21–216), TetR/AcrR-like regulator from Streptomyces coelicolor (Streptomyces coelicolor) (UniProt Q9KYU4)
Assay: SAXS

SCO3201 (amino acids 21–216), TetR/AcrR-like regulator from Streptomyces coelicolor (from UniProt Q9KYU4 21-216) (domain or fragment)
stoichiometry N: 2
